Columns and labels:
HLA-A*01:01 = assay: IEDB peptide-MHC binding, purified MHC/direct/fluorescence; filed as Kd, often an IC50 or EC50 that approximates it; ≥ and ≤ were set here for values at or beyond the usual limits of such assays
HLA-A*29:02 = assay: as above
HLA-A*02:01 [1] = assay: as above
HLA-A*02:12 = assay: as above; conditions: source organism: Zaire ebolavirus
HLA-A*02:19 = assay: as above; conditions: source organism: Zaire ebolavirus
HLA-A*03:01 [2] = assay: as above
HLA-A*11:01 [3] = assay: as above
HLA-A*24:03 = assay: as above; conditions: source organism: Zaire ebolavirus
HLA-A*31:01 = assay: as above
HLA-A*68:02 = assay: as above; conditions: source organism: Zaire ebolavirus
HLA-A*69:01 [4] = assay: as above
HLA-B*08:01 = assay: as above
HLA-B*15:01 [5] = assay: as above
HLA-B*18:01 [6] = assay: as above
HLA-B*27:05 = assay: as above
HLA-B*40:01 = assay: as above
HLA-B*44:02 = assay: as above
HLA-B*46:01 [7] = assay: as above
HLA-B*48:01 = assay: as above
HLA-B*57:01 [8] = assay: as above
HLA-B*58:01 = assay: as above
HLA-A*26:01 = assay: IEDB peptide-MHC binding, purified MHC/competitive/fluorescence; filed as Kd, often an IC50 or EC50 that approximates it; ≥ and ≤ were set here for values at or beyond the usual limits of such assays
HLA-B*27:03 = assay: as above
HLA-B*39:01 = assay: as above
HLA-B*51:01 = assay: as above
HLA-A*11:01 [9] = assay: IEDB peptide-MHC binding, purified MHC/competitive/fluorescence; ≥ and ≤ were set here for values at or beyond the usual limits of such assays
HLA-A*02:01 [10] = assay: as above; conditions: source organism: Zaire ebolavirus
HLA-A*03:01 [11] = assay: IEDB peptide-MHC binding, purified MHC/competitive/fluorescence; filed as Kd, often an IC50 or EC50 that approximates it; ≥ and ≤ were set here for values at or beyond the usual limits of such assays
HLA-A*69:01 [12] = assay: as above; conditions: source organism: Homo sapiens
HLA-B*15:01 [13] = assay: as above; conditions: source organism: Homo sapiens
HLA-B*15:17 = assay: as above; conditions: source organism: Homo sapiens
HLA-B*18:01 [14] = assay: as above; conditions: source organism: Homo sapiens
HLA-B*46:01 [15] = assay: as above; conditions: source organism: Homo sapiens
HLA-B*57:01 [16] = assay: as above; conditions: source organism: Homo sapiens
[17] = source organism: Ebola virus - Gabon (1994-1997)
[18] = source organism: Zaire ebolavirus
[19] = source organism: Sudan ebolavirus
[20] = source organism: Yellow fever virus 17D
[21] = source organism: Mycobacterium tuberculosis variant bovis BCG str. Pasteur 1173P2

In the case of LTDSDSPTY, the Kd (HLA-A*01:01; source organism: Mycobacterium tuberculosis) is reported as 0.025 µM and the Kd (HLA-A*29:02; source organism: Mycobacterium tuberculosis str. Haarlem) is reported as 0.14 µM.

Sequence QLSLKMLSL has a Kd (HLA-A*01:01; [17]) of no less than 20 µM, a Kd (HLA-A*02:01 [1]; [17]) of no less than 20 µM and a Kd (HLA-A*02:12) of no less than 20 µM. For the same sequence, the Kd (HLA-A*02:19) was no less than 20 µM, the Kd (HLA-A*03:01 [2]; [17]) was no less than 20 µM and the Kd (HLA-A*11:01 [3]; [17]) was no less than 20 µM. The Kd (HLA-A*24:03) was no less than 20 µM, the Kd (HLA-A*29:02; [17]) was no less than 20 µM and the Kd (HLA-A*31:01; [17]) was no less than 20 µM. It also gave a Kd (HLA-A*68:02) of no less than 20 µM, a Kd (HLA-A*69:01 [4]; [17]) of no less than 20 µM and a Kd (HLA-B*08:01; [17]) of 0.816 µM. It also gave a Kd (HLA-B*15:01 [5]; [17]) of no less than 20 µM, a Kd (HLA-B*18:01 [6]; [17]) of no less than 20 µM and a Kd (HLA-B*27:05; [17]) of no less than 20 µM. The Kd (HLA-B*40:01; [17]) was no less than 20 µM, the Kd (HLA-B*44:02; [17]) was no less than 20 µM and the Kd (HLA-B*46:01 [7]; [17]) was no less than 20 µM. For the same sequence, the Kd (HLA-B*48:01; [17]) was no less than 20 µM, the Kd (HLA-B*57:01 [8]; [17]) was no less than 20 µM and the Kd (HLA-B*58:01; [17]) was no less than 20 µM. The Kd (HLA-A*26:01; [18]) was no less than 20 µM, the Kd (HLA-B*27:03; [18]) was no less than 20 µM and the Kd (HLA-B*39:01; [18]) was no less than 20 µM. For the same sequence, the Kd (HLA-B*51:01; [18]) was no less than 20 µM.

With EDDDAASSR the IC50 (HLA-A*11:01 [9]; [19]) was no less than 70.9 µM.

For GVNNLEHGL, the IC50 (HLA-A*02:01 [10]) was 6.44 µM and the IC50 (HLA-A*11:01 [9]; [18]) was no less than 132 µM.

Sequence GLFNYFFGK has a Kd (HLA-A*03:01 [11]; source organism: Entamoeba histolytica HM-1:IMSS) of 41 nM.

Work on LLANILSEK yielded a Kd (HLA-A*03:01 [11]; source organism: Rickettsia sibirica 246) of 7.8 nM.

YITDYSNDI showed a Kd (HLA-A*02:01 [1]; source organism: Homo sapiens) of 0.0075 µM, a Kd (HLA-A*26:01; source organism: Homo sapiens) of no less than 20 µM and a Kd (HLA-A*69:01 [12]) of no less than 20 µM. For the same sequence, the Kd (HLA-B*15:01 [13]) was no less than 20 µM, the Kd (HLA-B*15:17) was no less than 20 µM and the Kd (HLA-B*18:01 [14]) was no less than 20 µM. It also gave a Kd (HLA-B*27:03; source organism: Homo sapiens) of no less than 20 µM, a Kd (HLA-B*39:01; source organism: Homo sapiens) of no less than 20 µM and a Kd (HLA-B*46:01 [15]) of no less than 20 µM. The Kd (HLA-B*51:01; source organism: Homo sapiens) was no less than 20 µM and the Kd (HLA-B*57:01 [16]) was no less than 20 µM.

Work on GEWAFWENK yielded an IC50 (HLA-A*11:01 [9]; [19]) of 26.2 µM.

For QAKKDFFSS, the IC50 (HLA-A*11:01 [9]; [18]) was 66.8 µM.

CRTAFKPVL was tested, and the Kd (HLA-A*01:01; [20]) was no less than 20 µM, the Kd (HLA-A*02:01 [1]; [20]) was no less than 20 µM and the Kd (HLA-A*03:01 [2]; [20]) was no less than 20 µM. It also gave a Kd (HLA-A*11:01 [3]; [20]) of no less than 20 µM, a Kd (HLA-A*29:02; [20]) of no less than 20 µM and a Kd (HLA-A*31:01; [20]) of no less than 20 µM. For the same sequence, the Kd (HLA-A*69:01 [4]; [20]) was no less than 20 µM, the Kd (HLA-B*15:01 [5]; [20]) was no less than 20 µM and the Kd (HLA-B*18:01 [6]; [20]) was no less than 20 µM. For the same sequence, the Kd (HLA-B*40:01; [20]) was no less than 20 µM, the Kd (HLA-B*44:02; [20]) was no less than 20 µM and the Kd (HLA-B*46:01 [7]; [20]) was no less than 20 µM. It also gave a Kd (HLA-B*48:01; [20]) of no less than 20 µM, a Kd (HLA-B*57:01 [8]; [20]) of no less than 20 µM and a Kd (HLA-B*58:01; [20]) of no less than 20 µM.

Work on VLGYSRMLY yielded a Kd (HLA-A*03:01 [11]; source organism: Escherichia coli 536) of 90.3 nM.

HPTSRRELL was tested, and the Kd (HLA-A*01:01; [21]) was no less than 20 µM, the Kd (HLA-A*03:01 [2]; [21]) was no less than 20 µM and the Kd (HLA-A*11:01 [3]; [21]) was no less than 20 µM. For the same sequence, the Kd (HLA-A*29:02; [21]) was no less than 20 µM, the Kd (HLA-A*31:01; [21]) was no less than 20 µM and the Kd (HLA-B*08:01; [21]) was 8.77 µM. It also gave a Kd (HLA-B*15:01 [5]; [21]) of no less than 20 µM, a Kd (HLA-B*18:01 [6]; [21]) of no less than 20 µM and a Kd (HLA-B*27:05; [21]) of no less than 20 µM. The Kd (HLA-B*40:01; [21]) was no less than 20 µM, the Kd (HLA-B*44:02; [21]) was no less than 20 µM and the Kd (HLA-B*46:01 [7]; [21]) was no less than 20 µM. The Kd (HLA-B*48:01; [21]) was no less than 20 µM, the Kd (HLA-B*57:01 [8]; [21]) was no less than 20 µM and the Kd (HLA-B*58:01; [21]) was no less than 20 µM.

— the Immune Epitope Database (IEDB)
